Assay results published in patent US20210009673A1, “METHODS FOR REGULATING BREAST CANCERS” (priority 2018, published 2021).

Legend:
MCF-7 cells = assay: homophilic cell-cell adhesion assay (ratio NTC/NTE); type: cell-based
Description: FIG. 4: FIG. 4 illustrates in: (A), β-catenin phosphorylated by ALK at tyrosine 333 decreases the association of β-catenin with cadherin. Recombinant E-cadherin serine 692 was phosphorylated with CK2 and GSK3β and incubated with recombinant GST-β-catenin, with GST-β-catenin phosphorylated in vitro by ALK, with GST-β-catenin Y333F, or with GST-β-catenin K292A, Y333F, K335A. The GST-conjugated proteins were captured with glutathione-conjugated beads and the phospho-Ser692-E-cadherin that associated with the GST-conjugated proteins was eluted and analyzed in Western blots probed with anti-β-catenin and anti-E-cadherin antibodies. […] After incubation for 20 minutes at 37° C., β-catenin was then captured with glutathione beads and, after extensive washing, eluted with SDS buffer and analyzed in Western blots with either anti-pan-cadherin antibodies, anti-phospho-tyrosine antibodies, or anti-β-catenin antibodies to determine if β-catenin phosphorylated by ALK at tyrosine 333 associates with cadherin. […] The ratio of cells dissociated in calcium-containing media (NTC) vs. the cells dissociated in calcium-free media (NTE) (a “dissociation index,” see Experimental Procedures) was measured. […] The morphological appearance was then analyzed 36 hours later and compared with cells transfected with an equal amount of control empty vector. […]

β-catenin = assay: tyrosine phosphorylation of β-catenin in PTN-stimulated U87MG cells; type: cell-based, human; conditions: control U87MG cells; 50 ng PTN/ml
Description: FIG. 1: FIG. 1 illustrates in (A) PTN stimulation of tyrosine phosphorylation of β-catenin in cells that express RPTPβ/ζ and ALK. COS7 cells transiently expressing ALK and RPTPβ/ζ were stimulated with 10 ng PTN/ml. Cell lysates were prepared and used to immunoprecipitate β-catenin. The immunoprecipitates were analyzed in Western blots probed with anti-phosphotyrosine antibodies. Lane 1, cells transfected with ALK that were not stimulated with PTN. Lane 2, cells transfected with ALK stimulated with PTN. Lane 3, cells transfected with empty vector not stimulated with PTN. Lane 4, cells transfected with empty vector stimulated with PTN. […] The immunoprecipitates were analyzed in Western blots probed with anti-phosphotyrosine antibodies. […] Cell lysates were used to immunoprecipitate β-catenin and the immunoprecipitates were analyzed in Western blots probed with anti-phospho-tyrosine antibodies and reprobed with anti-β-catenin antibodies. […] MCF-7 cells that stably express EGFR/RPTPβ/ζ not transfected with ALK were analyzed as above. […] Lysates of MCF-7 cells and lysates of MCF-7 cells stimulated with EGF were used to immunoprecipitate β-catenin and the immunoprecipitates were analyzed in Western blots probed with anti-phospho-tyrosine antibodies and separately with anti-β-catenin antibodies. […]

B1: pleiotrophin (protein, UniProt P21246 33-168, looked up)
Pleiotrophin: GKKEKPEKKVKKSDCGEWQWSVCVPTSGDCGLGTREGTRTGAECKQTMKTQRCKIPCNWKKQFGAECKYQFQAWGECDLNTALKTRTGSLKRALHNAECQKTVTISKPCGKLTKPKPQAESKKKKKEGKKQEKMLD
ratio NTC/NTE (MCF-7 cells; PTN-stimulated MCF7 cells expressing both RPTPβ/ζ and ALK): about 0.38
ratio NTC/NTE (MCF-7 cells; PTN-stimulated MCF-7 cells transfected with ALK alone): about 0.25
phosphorylation of β-catenin (β-catenin): sharply increased
